In paper PMC3630801:

Target: TonB_(ΔTMD) L194C labeled with BODIPY FL (Escherichia coli) (UniProt P02929)
Experiment: fluorescence polarisation

BtuB with bound colicin E3 receptor-binding fragment (ColE3R) (from UniProt P06129 21-614; P00646 1-551) (complex)
Kd: 1500 nM
